Where no end group is shown, it is not given here.

The record followed here is patent US20070224186A1.

The target of the test is EG(2)-HepN. The test can be described thus: competitive ELISA with EG(2)-HepN; competitor N-terminally biotinylated hepcidin-(28-47). Background: An ELISA detects its analyte on a solid surface through an enzyme-linked reagent.

PQQTGQLAELQPQDRAGARA (not fully specified (C-terminus)) [hepcidin-(28-47)]: the detection limit of the ELISA was determined as 0.1 ng/well.
